Source: the RNAGym collection of RNA variant scans (doi:10.7554/elife.90254)

B1: LINE1-full (parent)
chain: UACGUAGGUGGUUUUCCCCUGAUAGUGCUAAGGGGGCCUGGAAGUUUGGACUGGGCAGAGCUCAACACAGCGUGGCAAAGUGGCUGUGGCUAGACUGCCUCUCUGGAUUCCUCGUCACUCAGCAGGGCAUCUCUGAGAGAAAUGCC

Variants of: B1
Test: self-cleavage, relative activity (ratio to wild type); higher = more cleavage; in vitro, sequencing; the parent is a self-cleaving ribozyme
For UACGUAGGUGGUUUUCCCCUGAUAGUGCUAAGGGGGCCUGGAAGUUUGGACUGGGCAGAGCUCAACACAGCGUGGCAAAGUGGCUGUGGCUAGACUGCCCCUCUGGAUUCCUCGUCACUCAGCAGGGCAUCUCUGAGAGAUAUGCC [U100C A141U], the self-cleavage was 1.08. With UACGUAGGUGGUUUUCCCCUGAUAGUGCUAAGGGGGCCUGGAAGUUUGGACUGGGCAGAGCUCAACACAGCGUGGCAAAGUGGCUGUGGCUAGACUGCCCCUCUGGAUUCCUCGUCACUCAGCAGGGUAUCUCUGAGAGAAAUGCC [U100C C128U] the self-cleavage was 1.58. UACGUAGGUGGUUUUCCCCUGAUAGUGCUAAGGGGGCCUGGAAGUUUGGACUGGGCAGAGCUCAACACAGCGUGGCAAAGUGGCUGUGGCUAGACUGCCCCUCUGGAUUCCUCGUCACUCAGCAGGGCAUCUCUGAGAGAAGUGCC [U100C A142G] showed a self-cleavage of 1.93. In the case of UACGUAGGUGGUUUUCCCCUGAUAGUGCUAAGGGGGCCUGGAAGUUUGGACUGGGCAGAGCUCAACACAGCGUGGCAAAGUGGCUGUGGCUAGACUGCCACUCUGGAUUCCUCGCCACUCAGCAGGGCAUCUCUGAGAGAAAUGCC [U100A U115C], the self-cleavage is reported as 1.22. Work on UACGUAGGUGGUUUUCCCCUGAUAGUGCUAAGGGGGCCUGGAAGUUUGGACUGGGCAGAGCUCAACACAGCGUGGCAAAGUGGCUGUGGCUAGACUGCCACUCUGGAUUCCUCGUCACUCAGCAGGGCAUCUCUGAGAGAAACGCC [U100A U143C] yielded a self-cleavage of 0.86. UACGUAGGUGGUUUUCCCCUGAUAGUGCUAAGGGGGCCUGGAAGUUUGGACUGGGCAGAGCUCAACACAGCGUGGCAAAGUGGCUGUGGCUAGACUGCCACUCUGGAUUCCUCGUCACUCAGCAGGGCAUCUCUGAGAGAAAAGCC [U100A U143A] showed a self-cleavage of 0.91. In the case of UACGUAGGUGGUUUUCCCCUGAUAGUGCUAAGGGGGCCUGGAAGUUUGGACUGGGCAGAGCUCAACACAGCGUGGCAAAGUGGCUGUGGCUAGACUGCCACUCUGGAUUCCUCGUCACUCAGCAGGGCAUCUCAGAGAGAAAUGCC [U100A U134A], the self-cleavage is reported as 1.02. UACGUAGGUGGUUUUCCCCUGAUAGUGCUAAGGGGGCCUGGAAGUUUGGACUGGGCAGAGCUCAACACAGCGUGGCAAAGUGGCUGUGGCUAGACUGCCCCUCUGGUUUCCUCGUCACUCAGCAGGGCAUCUCUGAGAGAAAUGCC [U100C A107U] gave a self-cleavage of 1.21. In the case of UACGUAGGUGGUUUUCCCCUGAUAGUGCUAAGGGGGCCUGGAAGUUUGGACUGGGCAGAGCUCAACACAGCGUGGCAAAGUGGCUGUGGCUAGACUGCCCCUCUGGGUUCCUCGUCACUCAGCAGGGCAUCUCUGAGAGAAAUGCC [U100C A107G], the self-cleavage is reported as 1.73. In the case of UACGUAGGUGGUUUUCCCCUGAUAGUGCUAAGGGGGCCUGGAAGUUUGGACUGGGCAGAGCUCAACACAGCGUGGCAAAGUGGCUGUGGCUAGACUGCCACUCUGGAGUCCUCGUCACUCAGCAGGGCAUCUCUGAGAGAAAUGCC [U100A U108G], the self-cleavage is reported as 0. With UACGUAGGUGGUUUUCCCCUGAUAGUGCUAAGGGGGCCUGGAAGUUUGGACUGGGCAGAGCUCAACACAGCGUGGCAAAGUGGCUGUGGCUAGACUGCCACUCUGGAUUCCUCGUCACUCAGCAGGGCAUCCCUGAGAGAAAUGCC [U100A U132C] the self-cleavage was 0.65. For UACGUAGGUGGUUUUCCCCUGAUAGUGCUAAGGGGGCCUGGAAGUUUGGACUGGGCAGAGCUCAACACAGCGUGGCAAAGUGGCUGUGGCUAGACUGCCACUCUGGAUUCCUCGUCACUCAGCAGGGCAUCUCUGCGAGAAAUGCC [U100A A136C], the self-cleavage was 1.05. In the case of UACGUAGGUGGUUUUCCCCUGAUAGUGCUAAGGGGGCCUGGAAGUUUGGACUGGGCAGAGCUCAACACAGCGUGGCAAAGUGGCUGUGGCUAGACUGCCACUCUGGAUUCCUCGUCACCCAGCAGGGCAUCUCUGAGAGAAAUGCC [U100A U119C], the self-cleavage is reported as 1.23. Work on UACGUAGGUGGUUUUCCCCUGAUAGUGCUAAGGGGGCCUGGAAGUUUGGACUGGGCAGAGCUCAACACAGCGUGGCAAAGUGGCUGUGGCUAGACUGCCACUCCGGAUUCCUCGUCACUCAGCAGGGCAUCUCUGAGAGAAAUGCC [U100A U104C] yielded a self-cleavage of 1.68. UACGUAGGUGGUUUUCCCCUGAUAGUGCUAAGGGGGCCUGGAAGUUUGGACUGGGCAGAGCUCAACACAGCGUGGCAAAGUGGCUGUGGCUAGACUGCCACUCAGGAUUCCUCGUCACUCAGCAGGGCAUCUCUGAGAGAAAUGCC [U100A U104A] showed a self-cleavage of 1.51. For UACGUAGGUGGUUUUCCCCUGAUAGUGCUAAGGGGGCCUGGAAGUUUGGACUGGGCAGAGCUCAACACAGCGUGGCAAAGUGGCUGUGGCUAGACUGCCCCUCUGGAUUCCUCGUCACUCAGCAGGGCAUCUCUGAGAGAAAUGCA [U100C C146A], the self-cleavage was 1.75. In the case of UACGUAGGUGGUUUUCCCCUGAUAGUGCUAAGGGGGCCUGGAAGUUUGGACUGGGCAGAGCUCAACACAGCGUGGCAAAGUGGCUGUGGCUAGACUGCCACUCUGGAUUCCUCGUCACUCAGCAGGGCAUCUUUGAGAGAAAUGCC [U100A C133U], the self-cleavage is reported as 0.54. Variant UACGUAGGUGGUUUUCCCCUGAUAGUGCUAAGGGGGCCUGGAAGUUUGGACUGGGCAGAGCUCAACACAGCGUGGCAAAGUGGCUGUGGCUAGACUGCCACUCUGGAUUCCUCGUCACUCAGCAGGGCAUCUCUGAGAGAAAUGCG [U100A C146G] has a self-cleavage of 1.26. UACGUAGGUGGUUUUCCCCUGAUAGUGCUAAGGGGGCCUGGAAGUUUGGACUGGGCAGAGCUCAACACAGCGUGGCAAAGUGGCUGUGGCUAGACUGCCCCUCUGGAUUCCUCGUCACUCAGCAGGGCAUCUCUGAGAGAAAUGUC [U100C C145U] showed a self-cleavage of 2.29. In the case of UACGUAGGUGGUUUUCCCCUGAUAGUGCUAAGGGGGCCUGGAAGUUUGGACUGGGCAGAGCUCAACACAGCGUGGCAAAGUGGCUGUGGCUAGACUGCCCCUCUGGAUUCCUCGUCACUCAGCAGGGCUUCUCUGAGAGAAAUGCC [U100C A129U], the self-cleavage is reported as 1.92. With UACGUAGGUGGUUUUCCCCUGAUAGUGCUAAGGGGGCCUGGAAGUUUGGACUGGGCAGAGCUCAACACAGCGUGGCAAAGUGGCUGUGGCUAGACUGCCCCUUUGGAUUCCUCGUCACUCAGCAGGGCAUCUCUGAGAGAAAUGCC [U100C C103U] the self-cleavage was 1.65. Work on UACGUAGGUGGUUUUCCCCUGAUAGUGCUAAGGGGGCCUGGAAGUUUGGACUGGGCAGAGCUCAACACAGCGUGGCAAAGUGGCUGUGGCUAGACUGCCCCUAUGGAUUCCUCGUCACUCAGCAGGGCAUCUCUGAGAGAAAUGCC [U100C C103A] yielded a self-cleavage of 0.85. For UACGUAGGUGGUUUUCCCCUGAUAGUGCUAAGGGGGCCUGGAAGUUUGGACUGGGCAGAGCUCAACACAGCGUGGCAAAGUGGCUGUGGCUAGACUGCCACUCUGGAUUCCUCGUCACUCAGCAGGGCAUCUCUGAGAGAAAUGCC [U100A], the self-cleavage was 0.9. For UACGUAGGUGGUUUUCCCCUGAUAGUGCUAAGGGGGCCUGGAAGUUUGGACUGGGCAGAGCUCAACACAGCGUGGCAAAGUGGCUGUGGCUAGACUGCCCCUCUGGAUUCCUCGUCACUCAGCAGGGCAUCUCUGAGAGAAAUGCC [U100C], the self-cleavage was 1.79. For UACGUAGGUGGUUUUCCCCUGAUAGUGCUAAGGGGGCCUGGAAGUUUGGACUGGGCAGAGCUCAACACAGCGUGGCAAAGUGGCUGUGGCUAGACUGCCCCUCUGGAUUCCUCGUCACUCAGCAGGGCAUCUCUGAGUGAAAUGCC [U100C A138U], the self-cleavage was 1.51. UACGUAGGUGGUUUUCCCCUGAUAGUGCUAAGGGGGCCUGGAAGUUUGGACUGGGCAGAGCUCAACACAGCGUGGCAAAGUGGCUGUGGCUAGACUGCCACUCUGGAUUCCUCGUUACUCAGCAGGGCAUCUCUGAGAGAAAUGCC [U100A C116U] showed a self-cleavage of 0.4. UACGUAGGUGGUUUUCCCCUGAUAGUGCUAAGGGGGCCUGGAAGUUUGGACUGGGCAGAGCUCAACACAGCGUGGCAAAGUGGCUGUGGCUAGACUGCCACUCUGGAUUCCUCGUCACUCAGCGGGGCAUCUCUGAGAGAAAUGCC [U100A A124G] gave a self-cleavage of 1.02. Work on UACGUAGGUGGUUUUCCCCUGAUAGUGCUAAGGGGGCCUGGAAGUUUGGACUGGGCAGAGCUCAACACAGCGUGGCAAAGUGGCUGUGGCUAGACUGCCACUCUGGAUUCCUCGUCACUCAGCAGGGCUUCUCUGAGAGAAAUGCC [U100A A129U] yielded a self-cleavage of 1.25. Work on UACGUAGGUGGUUUUCCCCUGAUAGUGCUAAGGGGGCCUGGAAGUUUGGACUGGGCAGAGCUCAACACAGCGUGGCAAAGUGGCUGUGGCUAGACUGCCACUCUGGAUUCCUCGUCACUCAGCAGGGCGUCUCUGAGAGAAAUGCC [U100A A129G] yielded a self-cleavage of 1.49. UACGUAGGUGGUUUUCCCCUGAUAGUGCUAAGGGGGCCUGGAAGUUUGGACUGGGCAGAGCUCAACACAGCGUGGCAAAGUGGCUGUGGCUAGACUGCCACUCUGGAUUCCUCGUCACUCAGCAAGGCAUCUCUGAGAGAAAUGCC [U100A G125A] showed a self-cleavage of 1.05. Work on UACGUAGGUGGUUUUCCCCUGAUAGUGCUAAGGGGGCCUGGAAGUUUGGACUGGGCAGAGCUCAACACAGCGUGGCAAAGUGGCUGUGGCUAGACUGCCACUCUGGAUUCCUCGUCACUCAGCAGGGCAUCUCUGAAAGAAAUGCC [U100A G137A] yielded a self-cleavage of 0.85. Work on UACGUAGGUGGUUUUCCCCUGAUAGUGCUAAGGGGGCCUGGAAGUUUGGACUGGGCAGAGCUCAACACAGCGUGGCAAAGUGGCUGUGGCUAGACUGCCACUCUGGAUUCCUCGUCACUCAGCAGGGCAUCUCUGAGAGAAGUGCC [U100A A142G] yielded a self-cleavage of 0.77. Variant UACGUAGGUGGUUUUCCCCUGAUAGUGCUAAGGGGGCCUGGAAGUUUGGACUGGGCAGAGCUCAACACAGCGUGGCAAAGUGGCUGUGGCUAGACUGCCCCUCUGGAUUCCUCGUCACUCAGCAGGGCAUCUCUGAGAGGAAUGCC [U100C A140G] has a self-cleavage of 1.79. For UACGUAGGUGGUUUUCCCCUGAUAGUGCUAAGGGGGCCUGGAAGUUUGGACUGGGCAGAGCUCAACACAGCGUGGCAAAGUGGCUGUGGCUAGACUGCCCCUCUGGAUUCCUCGUCACUCAGCAGGGCAUCUCUGAGAGUAAUGCC [U100C A140U], the self-cleavage was 1.82. For UACGUAGGUGGUUUUCCCCUGAUAGUGCUAAGGGGGCCUGGAAGUUUGGACUGGGCAGAGCUCAACACAGCGUGGCAAAGUGGCUGUGGCUAGACUGCCCCUCUGGAUUCCUCGUCACUCAGCAGGGCAUCUCUGGGAGAAAUGCC [U100C A136G], the self-cleavage was 1.91. UACGUAGGUGGUUUUCCCCUGAUAGUGCUAAGGGGGCCUGGAAGUUUGGACUGGGCAGAGCUCAACACAGCGUGGCAAAGUGGCUGUGGCUAGACUGCCCCUCUGGAUUCCUCGUCACUCAGCAGGGCAUCUCUGUGAGAAAUGCC [U100C A136U] showed a self-cleavage of 1.73. With UACGUAGGUGGUUUUCCCCUGAUAGUGCUAAGGGGGCCUGGAAGUUUGGACUGGGCAGAGCUCAACACAGCGUGGCAAAGUGGCUGUGGCUAGACUGCCACUUUGGAUUCCUCGUCACUCAGCAGGGCAUCUCUGAGAGAAAUGCC [U100A C103U] the self-cleavage was 0.44. Work on UACGUAGGUGGUUUUCCCCUGAUAGUGCUAAGGGGGCCUGGAAGUUUGGACUGGGCAGAGCUCAACACAGCGUGGCAAAGUGGCUGUGGCUAGACUGCCACACUGGAUUCCUCGUCACUCAGCAGGGCAUCUCUGAGAGAAAUGCC [U100A U102A] yielded a self-cleavage of 0.49. With UACGUAGGUGGUUUUCCCCUGAUAGUGCUAAGGGGGCCUGGAAGUUUGGACUGGGCAGAGCUCAACACAGCGUGGCAAAGUGGCUGUGGCUAGACUGCCACCCUGGAUUCCUCGUCACUCAGCAGGGCAUCUCUGAGAGAAAUGCC [U100A U102C] the self-cleavage was 1.7.
